The results in this text go back to the supplement of paper PMC11246515.

The series can be described thus: total protein half-life in vivo (active degradation + dilution); higher = more stable protein.
The mark [1] stands for this setting: E. coli NCM3722 delta-clpP delta-lon delta-hslV, growth: N-lim chemostat, doubling time 6 h.
[2] abbreviates: E. coli NCM3722 delta-clpP, growth: N-lim chemostat, doubling time 6 h.
[3] abbreviates: E. coli NCM3722 delta-hslV, growth: N-lim chemostat, doubling time 6 h.
Setting [4] is: E. coli NCM3722 delta-lon, growth: N-lim chemostat, doubling time 6 h.
[5] abbreviates: E. coli NCM3722 delta-smpB, growth: N-lim chemostat, doubling time 6 h.
Setting [6] is: wild type E. coli NCM3722, growth: C-lim chemostat, doubling time 3 h.
Setting [7] is: wild type E. coli NCM3722, growth: C-lim chemostat, doubling time 6 h.
Setting [8] is: wild type E. coli NCM3722, growth: C-lim chemostat, doubling time 12 h.
Where [9] appears, read: wild type E. coli NCM3722, growth: N-lim chemostat, doubling time 6 h.
[10] abbreviates: wild type E. coli NCM3722, growth: N-lim chemostat, doubling time 12 h.
Setting [11] is: wild type E. coli NCM3722, growth: P-lim chemostat, doubling time 6 h.
[12] abbreviates: wild type E. coli NCM3722, growth: P-lim chemostat, doubling time 12 h.

± gives the standard deviation of the averaged measurements.

Take “MKKIACLSALAAVLAFTAGTSVAATSTVTGGYAQSDAQGQMNKMGGFNLKYRYEEDNSPLGVIGSFTYTEKSRTASSGDYNKNQYYGITAGPAYRINDWASIYGVVGVGYGKFQTTEYPTYKHDTSDYGFSYGAGLQFNPMENVALDFSYEQSRIRSVDVGTWIAGVGYRF [P0A917]”: the “total protein half-life in vivo” value under setting [1] was determined as 7.26 ± 0.62 h; the “total protein half-life in vivo” value under setting [2] worked out at 6.37 ± 0.47 h; the “total protein half-life in vivo” value under setting [3] was determined as 6.51 ± 0.36 h; the “total protein half-life in vivo” value under setting [4] was determined as 6.76 ± 0.59 h; the “total protein half-life in vivo” value under setting [5] stood at 5.81 ± 0.095 h; the “total protein half-life in vivo” value under setting [6] is 3.09 ± 0.13 h. Further, the “total protein half-life in vivo” value runs as follows: under setting [7], 6.04 ± 0.27 h; under setting [8], 14.4 ± 0.89 h; under setting [9], 6.09 ± 0.073 h; under setting [10], 12.9 ± 1.1 h; under setting [11], 6.15 ± 0.19 h; under setting [12], 12.9 ± 0.62 h.
In the case of “MENLARFLSTTLKQLRQQRGWSLSRLAEATGVSKAMLGQIERNESSPTVATLWKIATGLNVPFSTFISPPQSATPSVYDPQQQAMVITSLFPYDPQLCFEHFSIQMASGAISESTPHEKGVIEHVVVIDGQLDLCVDGEWQTLNCGEGVRFAADVTHIYRNGGEQTVHFHSLIHYPRS”, the “total protein half-life in vivo” value by setting is: under setting [1], 5.69 ± 0.83 h; under setting [2], 4.59 ± 0.28 h; under setting [3], 4.71 ± 0.22 h; under setting [4], 5.58 ± 0.23 h; under setting [5], 5.33 ± 1.1 h; under setting [6], 3.4 ± 0.15 h. The “total protein half-life in vivo” value was 5.27 ± 0.69 h under setting [7]; 10.1 ± 0.49 h under setting [8]; 4.52 ± 0.93 h under setting [9]; 7.78 ± 0.9 h under setting [10]; 6.27 ± 1.1 h under setting [11]; 9.9 ± 0.44 h under setting [12].
Regarding “MSERLSITPLGPYIGAQISGADLTRPLSDNQFEQLYHAVLRHQVVFLRDQAITPQQQRALAQRFGELHIHPVYPHAEGVDEIIVLDTHNDNPPDNDNWHTDVTFIETPPAGAILAAKELPSTGGDTLWTSGIAAYEALSVPFRQLLSGLRAEHDFRKSFPEYKYRKTEEEHQRWREAVAKNPPLLHPVVRTHPVSGKQALFVNEGFTTRIVDVSEKESEALLSFLFAHITKPEFQVRWRWQPNDIAIWDNRVTQHYANADYLPQRRIMHRATILGDKPFYRAG”, the “total protein half-life in vivo” value by setting is: under setting [1], 4.38 ± 0.24 h; under setting [2], 4.17 ± 3.1 h; under setting [3], 2.39 ± 0.83 h; under setting [4], 2.1 h; under setting [5], 2.36 ± 0.22 h; under setting [6], 2.88 ± 0.46 h. For the same sequence, the “total protein half-life in vivo” value runs as follows: under setting [7], 4.02 h; under setting [8], 5.19 ± 0.73 h; under setting [9], 1.58 h; under setting [10], 2.31 ± 0.34 h; under setting [11], 4.3 h; under setting [12], 7.36 ± 0.57 h.
Take “MSHLKDPTTQYYTGEYPKQKQPTPGIQAKMTPVPDCGEKTYVGSGRLKDRKALVTGGDSGIGRAAAIAYAREGADVAISYLPVEEEDAQDVKKIIEECGRKAVLLPGDLSDEKFARSLVHEAHKALGGLDIMALVAGKQVAIPDIADLTSEQFQKTFAINVFALFWLTQEAIPLLPKGASIITTSSIQAYQPSPHLLDYAATKAAILNYSRGLAKQVAEKGIRVNIVAPGPIWTALQISGGQTQDKIPQFGQQTPMKRAGQPAELAPVYVYLASQESSYVTAEVHGVCGGEHLG [P0AG84]”: the “total protein half-life in vivo” value under setting [1] came to 5.31 ± 0.2 h; the “total protein half-life in vivo” value under setting [2] was 5.27 ± 0.099 h; the “total protein half-life in vivo” value under setting [3] was determined as 5.82 ± 0.34 h; the “total protein half-life in vivo” value under setting [4] was 5.57 ± 0.34 h; the “total protein half-life in vivo” value under setting [5] worked out at 5.06 ± 0.66 h; the “total protein half-life in vivo” value under setting [6] was found to be 3.13 ± 0.54 h. Further, the “total protein half-life in vivo” value runs as follows: under setting [7], 6.3 ± 0.59 h; under setting [8], 11.4 ± 2.8 h; under setting [9], 5.32 ± 0.27 h; under setting [10], 9.18 ± 0.35 h; under setting [11], 5.5 ± 0.43 h; under setting [12], 10.73 ± 0.025 h.
For the sequence “MSIEIANIKKSFGRTQVLNDISLDIPSGQMVALLGPSGSGKTTLLRIIAGLEHQTSGHIRFHGTDVSRLHARDRKVGFVFQHYALFRHMTVFDNIAFGLTVLPRRERPNAAAIKAKVTKLLEMVQLAHLADRYPAQLSGGQKQRVALARALAVEPQILLLDEPFGALDAQVRKELRRWLRQLHEELKFTSVFVTHDQEEATEVADRVVVMSQGNIEQADAPDQVWREPATRFVLEFMGEVNRLQGTIRGGQFHVGAHRWPLGYTPAYQGPVDLFLRPWEVDISRRTSLDSPLPVQVLEASPKGHYTQLVVQPLGWYNEPLTVVMHGDDAPQRGERLFVGLQHARLYNGDERIETRDEELALAQSA”, the “total protein half-life in vivo” value is, setting by setting: under setting [1], 6.63 ± 1.7 h; under setting [2], 5.04 ± 1.5 h; under setting [3], 2.09 ± 0.0062 h; under setting [4], 2.01 ± 0.088 h; under setting [5], 2.01 ± 0.032 h; under setting [6], 2.4 ± 1.4 h. Besides, the “total protein half-life in vivo” value under setting [7] came to 3.58 ± 2.8 h; the “total protein half-life in vivo” value under setting [8] turned out to be 2.68 ± 0.037 h; the “total protein half-life in vivo” value under setting [9] was determined as 2.08 ± 0.11 h; the “total protein half-life in vivo” value under setting [10] is 2.85 ± 0.09 h; the “total protein half-life in vivo” value under setting [11] stood at 2.65 ± 0.42 h; the “total protein half-life in vivo” value under setting [12] came out at 4.77 ± 0.37 h.
Turning to “MGGISIWQLLIIAVIVVLLFGTKKLGSIGSDLGASIKGFKKAMSDDEPKQDKTSQDADFTAKTIADKQADTNQEQAKTEDAKRHDKEQV”, the “total protein half-life in vivo” value is, setting by setting: under setting [1], 4.809 ± 0.026 h; under setting [2], 4.72 ± 0.96 h; under setting [3], 4.51 ± 0.3 h; under setting [4], 4.05 ± 0.54 h; under setting [5], 4.55 ± 0.22 h; under setting [6], 2.93 ± 0.082 h. For the same sequence, the “total protein half-life in vivo” value runs as follows: under setting [7], 5.337 ± 0.019 h; under setting [8], 9.34 ± 0.37 h; under setting [9], 4.72 ± 0.21 h; under setting [10], 9.53 ± 2.4 h; under setting [11], 4.41 ± 0.37 h; under setting [12], 8.96 ± 0.53 h.
“MSTRLTTLSHTSEGHRVSVHYGYDDKGRLTGERQTVENPETGELLWHHETGHAYNEQGLANRVTPDSLPPVEWLTYGSGYLAGMKLGGTPLLEFTRDRLHRETVRSFGSMAGSNAAYKLTSTYTPAGQLQSQHLNSLVYDRDYGWNDNGDLVRISGPRQTREYGYSATGRLESVRTLAPDLDIRIPYATDPAGNRLPDPELHPDSTLTVWPDNRIAEDAHYVYRHDEYGRLTEKTDRIPAGVIRTDDERTHHYHYDSQHRLVFYTRIQHGEPLVESRYLYDPLGRRMAKRVWRRERDLTGWMSLSRKPEVTWYGWDGDRLTTVQTDTTRIQTVYEPGSFTPLIRVETENGEREKAQRRSLAETLQQEGSENGHGVVFPAELVRLLDRLEEEIRADRVSSESRAWLAQCGLTVEQLARQVEPEYTPARKVHFYHCDHRGLPLALISEDGNTAWRGEYDEWGNQLNEENPHHLHQPYRLPGQQHDEESGLYYNRHRHYDPLQGRYITPDPIGLRGGWNMYQYPLNPIQVIDPMGLDAIENMTSGGLIYAVSGVPGLIAANSITNSAYQFGYDMDAIVGGAHNGAADAMRHCYLMCRMTKTFGSTIADVIGKNHEAAGDRQGQPAKERIMDLKNNTVGIACGDFSAKCSDACIEKYNTGQLFGLDGIKADNPIKAKQGSSDASNY”: under setting [1], the “total protein half-life in vivo” value is 3.27 h.
As for “MDYVCSVVFICQSFDLIINRRVISFKKNSLFIVSDKIRRELPVCPSKLRIVDIDKKTCLSFFIDVNNELPGKFTLDKNGYIAEEEPPLSLVFSLFEGIKIADSHSLWLKERLCISLLAMFKKRESVNSFILTNINTFTCKITGIISFNIERQWHLKDIAELIYTSESLIKKRLRDEGTSFTEILRDTRMRYAKKLITSNSYSINVVAQKCGYNSTSYFICAFKDYYGVTPSHYFEKIIGVTDGINKTID”, the “total protein half-life in vivo” value was 5.39 ± 1.1 h under setting [1]; 3.62 ± 0.73 h under setting [2]; 3.65 ± 0.5 h under setting [3]; 3.18 ± 0.42 h under setting [5]; 2.27 ± 0.2 h under setting [6]; 4.11 ± 0.32 h under setting [7]. The “total protein half-life in vivo” value reads like this: under setting [8], 6.14 h; under setting [9], 2.95 h; under setting [10], 5.67 ± 0.64 h; under setting [11], 3.89 ± 0.38 h; under setting [12], 7.61 ± 2.4 h.
